Patent US20130052198A1, “ANTI-INFLAMMATORY FACTORS” (THE GENERAL HOSPITAL CORPORATION, priority 2010, published 2013)
“Also recorded” adds a separate entry of the source.

B1: TFPI2: isolated and purified molecular product of the gene TFPI2 (protein, UniProt P48307 23-235, looked up)
Tissue factor pathway …: DAAQEPTGNNAEICLLPLDYGPCRALLLRYYYDRYTQSCRQFLYGGCEGNANNFYTWEACDDACWRIEKVPKVCRLQVSVDDQCEGSTEKYFFNLSSMTCEKFFSGGCHRNRIENRFPDEATCMGFCAPKKIPSFCYSPKDEGLCSANVTRYYFNPRYRTCDAFTYTGCGGNDNNFVSREDCKRACAKALKKKKKMPKLRFASRIRKIRKKQF
B2: CRLF1: isolated and purified molecular product of the gene CRLF1 (protein, UniProt O75462 38-422, looked up)
Cytokine receptor-like factor …: AHTAVISPQDPTLLIGSSLLATCSVHGDPPGATAEGLYWTLNGRRLPPELSRVLNASTLALALANLNGSRQRSGDNLVCHARDGSILAGSCLYVGLPPEKPVNISCWSKNMKDLTCRWTPGAHGETFLHTNYSLKYKLRWYGQDNTCEEYHTVGPHSCHIPKDLALFTPYEIWVEATNRLGSARSDVLTLDILDVVTTDPPPDVHVSRVGGLEDQLSVRWVSPPALKDFLFQAKYQIRYRVEDSVDWKVVDDVSNQTSCRLAGLKPGTVYFVQVRCNPFGIYGSKKAGIWSEWSHPTAASTPRSERPGPGGGACEPRGGEPSSGPVRRELKQFLGWLKKHAYCSNLSFRLYDQWRAWMQKSHKTRNQDEGILPSGRRGTARGPAR
B3: LGALS3BP: Soluble galectin 3 binding protein, highly glycosylated secreted protein; recombinant form tested (protein, UniProt Q08380 19-585, looked up)
Galectin-3-binding protein: VNDGDMRLADGGATNQGRVEIFYRGQWGTVCDNLWDLTDASVVCRALGFENATQALGRAAFGQGSGPIMLDEVQCTGTEASLADCKSLGWLKSNCRHERDAGVVCTNETRSTHTLDLSRELSEALGQIFDSQRGCDLSISVNVQGEDALGFCGHTVILTANLEAQALWKEPGSNVTMSVDAECVPMVRDLLRYFYSRRIDITLSSVKCFHKLASAYGARQLQGYCASLFAILLPQDPSFQMPLDLYAYAVATGDALLEKLCLQFLAWNFEALTQAEAWPSVPTDLLQLLLPRSDLAVPSELALLKAVDTWSWGERASHEEVEGLVEKIRFPMMLPEELFELQFNLSLYWSHEALFQKKTLQALEFHTVPFQLLARYKGLNLTEDTYKPRIYTSPTWSAFVTDSSWSARKSQLVYQSRRGPLVKYSSDYFQAPSDYRYYPYQSFQTPQHPSFLFQDKRVSWSLVYLPTIQSCWNYGFSCSSDELPVLGLTKSGGSDRTIAYENKALMLCEGLFVADVTDFEGWKAAIPSALDTNSSKSTSSFPCPAGHFNGFRTVIRPFYLTNSSGVD
B4: UDP-N-acetyl-α-D-galactosamine:polypeptide N-acetylgalactosaminyltransferase 1 (protein, UniProt Q10472 1-559, looked up)
Polypeptide …: MRKFAYCKVVLATSLIWVLLDMFLLLYFSECNKCDEKKERGLPAGDVLEPVQKPHEGPGEMGKPVVIPKEDQEKMKEMFKINQFNLMASEMIALNRSLPDVRLEGCKTKVYPDNLPTTSVVIVFHNEAWSTLLRTVHSVINRSPRHMIEEIVLVDDASERDFLKRPLESYVKKLKVPVHVIRMEQRSGLIRARLKGAAVSKGQVITFLDAHCECTVGWLEPLLARIKHDRRTVVCPIIDVISDDTFEYMAGSDMTYGGFNWKLNFRWYPVPQREMDRRKGDRTLPVRTPTMAGGLFSIDRDYFQEIGTYDAGMDIWGGENLEISFRIWQCGGTLEIVTCSHVGHVFRKATPYTFPGGTGQIINKNNRRLAEVWMDEFKNFFYIISPGVTKVDYGDISSRVGLRHKLQCKPFSWYLENIYPDSQIPRHYFSLGEIRNVETNQCLDNMARKENEKVGIFNCHGMGGNQVFSYTANKEIRTDDLCLDVSKLNGPVTMLKCHHLKGNQLWEYDPVKLTLQHVNSNQCLDKATEEDSQVPSIRDCNGSRSQQWLLRNVTLPEIF
notes: recombinant protein product of the GALNT1 gene, secreted factor of marrow stromal cells

Assays:
[1] = test system: human leukocytes in culture; test: Cytokine production (IL-10 or IFN-γ) in human leukocytes in culture; type: cell-based; settings: concentrations within five orders of magnitude of 10 μg/mL
Description: Leukocytes were prepared from fresh whole human blood, collected and spun in the presence of Ficoll for 30 minutes at 1500×g. The mononuclear cell layer was transferred to a new tube where it was washed once with RPMI 1640. The mononuclear cells were plated at a density of 1×10^5 per well of a 96-well plate in 50 μL of RPMI 1640 per well. MSC-CM was then immediately added to each well and allowed to incubate in the presence of the mononuclear cells for 16 hours. After incubation, 50 μL of RPMI 1640 containing 10 μg/mL of LPS was added to each well and allowed to incubate for an additional 5 hours. The resultant supernatants were collected and analyzed via ELISA for human interleukin-10 (IL-10). This procedure of incubating leukocytes with MSC-CM to determine IL-10 stimulating activity will be henceforth referred to as the “IL-10 assay”.
Preparations and use of MSC-CM, Fb-CM, LPS-stimulated MSC-CM, leukocytes were as described in Examples 1-3 and the Figures. These conditioned media preparations were added to leukocyte cultures for 16 hours, after which the culture was stimulated with LPS at 10 μg/ml. The medium from this culture was collected 24 hours after LPS stimulation of leukocytes and analyzed using an IFN-γ ELISA.

[2] = test system: BALB/cJ mice challenged with a sub-lethal dose of LPS; test: In vivo LPS assay, sub-lethal LPS model: serum cytokines and lung histology; settings: for serum IL-10 levels / serum TNF-α: 3 μg protein or 1 mL 1×BMSC-CM IP, twice, 100 μg LPS, 48 h later, compared to saline
Description: FIG. 8: In vivo hit screen and survival study. (a) Schematic of the in vivo LPS assay. Proteins were administered intraperitoneal (IP) at the concentration that elicited the strongest effect in vitro, followed by IP administration of LPS in conjunction with a second dose of the proteins 16 hours later. Two days after the combined LPS and second protein dose, the mice were sacrificed and assessed for changes in serum cytokines and tissue histology. (b) Serum IL-10 levels of BALB/cJ mice subjected to the in vivo LPS assay. * p<0.001 compared to saline. (c) Serum TNF-α levels of BALB/cJ mice subjected to the in vivo LPS assay. * p<0.001 compared to saline, ** p<0.05 compared to BMSC-CM. (d) Representative micrographs of lung tissue from mice subjected to the in vivo LPS assay stained with hematoxylin and eosin. (e) Survival of mice subjected to a lethal dose of LPS i.p. (350 μg) concurrently with i.p. saline vehicle (bold dark blue line), 5 μg Anti-TNF-α antibody (thin dark blue line), 4 μg PENK (bold light blue line) or 4 μg MFAP5 (thin light blue line). Scale bar=200 μm.
All procedures were performed in accordance with the animal rights policies of the Massachusetts General Hospital Subcommittee on Research Animal Care. For the sub-lethal LPS model, eight week old female BALB/cJ mice (n≧3) (Jackson Laboratories, Bar Harbor, Me.) were administered an initial dose of either vehicle or one of the experimental therapies IP: 200 μL of saline (vehicle), or 3 μg of protein (e.g., GALNT1, LGALS3BP, MFAP5 or PENK) diluted in 200 μL of saline, or 1 mL of 1×BMSC-CM. 16 hours later, mice received a second dose of either vehicle or therapy in conjunction with a dose of 100 μg of LPS (E. coli 0111:B4; Sigma, St. Louis, Mo.) diluted in physiological saline. 48 hours later, mice were sacrificed and tissue and blood were collected for analysis. Serum was tested for the presence of IL-10 and TNF-α via ELISA and lungs, livers and kidneys of the animals were preserved for hematoxylin and eosin staining. For the lethal LPS model, eight week old female BALB/cJ mice (n≧5) were co-administered a lethal dose of LPS (350 μg LPS in 100 μL physiological saline) and either vehicle (negative control), 5 μg anti-TNF-α (positive control; R&D Systems, Minneapolis, Minn.), 4 μg MFAP5 diluted in 100 μL of physiological saline, or 4 μg of PENK diluted in 100 μL of physiological saline. Mice were monitored for survival for seven days (168 hours).

[3] = test system: colitic mice (TNBS colitis); test: TNBS colitis in mice, colon histopathology; type: in vivo; settings: 3 μg protein twice over 24 h; sacrifice at day 2; compared to vehicle (saline)
Description: FIG. 6: Administered MFAP5 and LGALS3BP protect mice from developing TNBS colitis. Mice were presensitized via the skin with 1% TNBS one week prior to intra-rectal administration of 3 mg of TNBS per mouse in a mixture of 50% EtOH and 50% sterile water to induce colitis. Mice were treated with 3 μg each of MFAP5, LGALS3BP and GALNT1 twice over a 24 hour period, once in conjunction with the TNBS administration and once 24 hours later. Mice were then sacrificed at day 2 and tissue collected for analysis. As expected, mice treated with vehicle (saline) developed extensive inflammation of the colon with loss of crypts and frank necrosis of the intestinal epithelium.
MFAP5, LGALS3BP and PENK all protected the colonic epithelium from the hallmark features of TNBS colitis: necrosis, inflammatory infiltrate and loss of crypts. Especially at the microscopic level, the tissue of the MFAP5, LGALS3BP and PENK treated animals looked mostly normal with minor foci of inflammation and edema.

[4] = test system: human peripheral blood mononuclear cells (PBMCs); test: PBMC potency assay (IL-10 assay): IL-10 secretion by LPS-stimulated PBMCs, ELISA; type: cell-based; settings: recombinant molecules diluted in RPMI 1640
Text: FIG. 1: MSC conditioned medium causes peripheral blood mononuclear cells to secrete IL-10 in response to LPS, providing the basis for differential gene expression analysis to identify genes responsible for the increased activity. (a) Generalized schematic of EPS methodology. Protein products are derived from various cell types in the form of conditioned media and screened for activity in an in vitro potency assay. […] Recombinant protein products of the enriched gene list are then screened in a potency assay and the candidates with the highest activity are assessed for activity in vivo. (b) In vitro potency assay. This assay entails incubating primary human peripheral blood mononuclear cells (PBMCs) in the presence of protein products (e.g., conditioned medium from a cell) for 16 hours, followed by stimulation of the PBMCs with LPS for five hours, and measurement of IL-10 secretion into the supernatant via ELISA. (c) Time course of IL-10 expression from PBMCs when incubated with either bone marrow stromal cell conditioned medium (BMSC-CM) or unconditioned medium (DMEM) in the potency assay. (d) Comparison of potency assay activity of conditioned medium from normal human dermal fibroblasts (FB-CM), BMSCs (BMSC-CM) and BMSCs preincubated with LPS prior to conditioning (BMSCLPS-CM). * p<0.001 compared to FB-CM, ** p<0.001 compared to BMSC-CM. (e) Schematic of the differential gene expression comparison strategy to select for genes uniquely expressed at high levels in LPS stimulated MSCs (MSCLPS) compared to MSCs and fibroblasts (FBs). Analysis was then conducted on the genes identified to select for genes that were most likely to be responsible for secreted proteins. MSCLPS, LPS stimulated MSC; FB, fibroblast. […]
Leukocytes were prepared from fresh whole human blood, collected and spun in the presence of Ficoll for 30 minutes at 1500×g. […] The resultant supernatants were collected and analyzed via ELISA for human interleukin-10 (IL-10). […]

Row | Molecule | promote IL-10 production or suppress IFN-γ production [1] | serum IL-10 levels [2] | serum TNF-α [2] | protection from TNBS colitis (colon histopathology) [3] | increase of IL-10 production compared to 10×MSC-CM [4] | lung histology (lung protection) ([2]; hematoxylin and eosin, sub-lethal LPS model, compared to vehicle)
1 | B1 | either promote IL-10 production or suppress IFN-γ production | – | – | – | – | –
2 | B2 | either promote IL-10 production or suppress IFN-γ production | – | – | – | – | –
3 | B3 | either promote IL-10 production or suppress IFN-γ production | no IL-10 response | significantly suppressed | protect the mice from developing acute colitis; also recorded: significant attenuation of colitis; also recorded: protected from developing extensive colonic inflammation | superior to that induced by 10×MSC-CM | –
4 | B4 | either promote IL-10 production or suppress IFN-γ production | Significantly elevated | not | not protected from development of colitis | superior to that induced by 10×MSC-CM | moderate protection
